Reference: patent US20210070881A1 (DENALI THERAPEUTICS, published 2021)

Legend:
[1] = target: cellular BACE1 in CHOK1-huAPP cells; assay: cell-based or functional assay
[2] = target: T1, recombinant BACE1 (BACE1 extracellular domain, R&D Systems Cat#931-AS) (UniProt P56817 22-457); assay: SPR Biacore T200, IgG captured, BACE1 analyte
T1 construct: extracellular domain; also called BACE1 extracellular domain protein
Experimental: The affinity of chimeric IgG antibodies for recombinant BACE1 was determined by surface plasmon resonance using a Biacore™ T200 instrument. Biacore™ Series S CMS sensor chips were immobilized with monoclonal mouse anti-human IgG (Fc) antibody (e.g., using a human antibody capture kit from GE Healthcare). 1 μg/mL of antibody was captured for 1 minute on each flow cell and serial 3-fold dilutions of recombinant BACE1 were injected at a flow rate of 30 μL/min. Each sample was analyzed with a 3-minute association and a 10-minute dissociation. After each injection, the chip was regenerated using 3M MgCl₂. Binding response was corrected by subtracting the RU from a flow cell capturing an irrelevant IgG at similar density. A 1:1 Langmuir model of simultaneous fitting of kₒₙ and koff was used for analysis of kinetics.

[3] = target: cellular BACE1 in CHOK1-huAPP cells; assay: cell-based or functional assay; remark: listed apart in the source
[4] = target: T1, recombinant BACE1 (BACE1 extracellular …); assay: SPR Biacore
[5] = target: T1, recombinant BACE1 (BACE1 extracellular …); assay: SPR Biacore 8K, antibody captured, BACE1 analyte
Experimental: The binding affinities of the affinity matured humanized 2H8 variants for BACE1 were determined by surface plasmon resonance using a Biacore™ 8K instrument. […] The binding was monitored for 300 seconds and then dissociation was monitored for 600+ seconds in HBS-EP+ running buffer (GE Healthcare Life Sciences, BR100669). Binding response was corrected by subtracting the RU from a blank flow cell. A 1:1 Langmuir model of simultaneous fitting of kₒₙ and koff was used for kinetics analysis.

T1 sequence (P56817 22-457): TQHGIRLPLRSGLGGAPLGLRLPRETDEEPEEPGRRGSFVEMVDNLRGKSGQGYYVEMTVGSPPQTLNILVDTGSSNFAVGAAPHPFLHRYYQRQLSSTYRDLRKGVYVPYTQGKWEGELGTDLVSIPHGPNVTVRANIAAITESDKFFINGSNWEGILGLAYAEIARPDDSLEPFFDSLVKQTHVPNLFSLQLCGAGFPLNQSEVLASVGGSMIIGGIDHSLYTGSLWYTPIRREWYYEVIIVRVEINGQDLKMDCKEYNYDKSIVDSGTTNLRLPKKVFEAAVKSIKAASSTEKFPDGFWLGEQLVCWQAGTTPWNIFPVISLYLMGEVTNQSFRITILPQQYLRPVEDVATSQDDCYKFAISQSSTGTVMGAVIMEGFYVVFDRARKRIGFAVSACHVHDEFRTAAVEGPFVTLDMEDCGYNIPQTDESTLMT

B1: 4A4 (antibody, human IgG1, V domains shown)
VH: EVKLMESGPGLVAPSQSLSITCTVSGFSLTSYPINWVRQPPGKGLEWLGVIWTGGSTNYNSALKSRLSISRDNSKSQVFLKMNSLQTDDTARYYCARWDGYFGAFDYWGQGTTVTVSS
VL: DIVMTQTTSSLSASLGDRVTISCRASQDISKYLNWYQQKPDGTVKLLIYYTSRLHSGVPSRFSGSGSGTDYSLTISNLEQEDIATYFCQQSLSLPYTFGGGTRLEIK
notes: chimeric, human IgG1/kappa; also called Clone 4A4
For B1, the “% Max Inhibition” value [1] was 53%, the “Cellular IC50” value [1] was 0.017 µM and the Kd [2] was 0.015 µM. For the same binder, the koff [2] was 0.0012 s⁻¹ and the kon [2] was 83000 M⁻¹ s⁻¹.

B2: 4H10 (antibody, human IgG1, V domains shown)
VH: EIQLQQSGPELKKPGETVKISCKTSGYTFTTYGMTWVKQAPGKGLKWMGWINTYSGVPIYADDFKGRSAFSLETSASTAYLQINNLENEDTATYFCARRGSTAHYFDYWGQGTTVTVSS
VL: DIVLTQSHKFMSTSVGDRVSITCKASQDVSTAVAWYQQKPGQSPKLLIYWASTRHTGVPDRFTGSGSGTDYTLTISSVQAEDLALYYCQQHYSTPYTFGGGTKLELK
notes: chimeric, human IgG1/kappa; also called Clone 4H10
B2 was tested, and the “% Max Inhibition” value [1] was 46%, the “Cellular IC50” value [1] was 0.018 µM and the Kd [2] was 0.023 µM. For the same binder, the koff [2] was 0.0022 s⁻¹ and the kon [2] was 96000 M⁻¹ s⁻¹.

B3: 1D7 (antibody, human IgG1, V domains shown)
VH: EVKLMESGPGLVAPSQSLSISCTVSGFSLTSYGVDWVRQPPGKGLEWLGVVWGGGSTNYNSALMSRLSISKDNSKSQVFLKMNSLQTDDTAMYYCAKRDYFGGLNVWGTGTTVTVSS
VL: DIVMTQTTSPLSVSLGDRVTISCRASQDISKYLNWYQQRPDGTVKLLIYYTSRLHSGVPSRFSGSGSGTDYSLTISNLEQEDIATYFCHQGHKIPYTFGGGTKLELK
notes: chimeric, human IgG1/kappa; also called Clone 1D7
B3 was tested, and the “% Max Inhibition” value [1] was 55%, the “Cellular IC50” value [1] was 0.004 µM and the Kd [2] was 0.016 µM. It also gave a koff [2] of 0.00095 s⁻¹ and a kon [2] of 59000 M⁻¹ s⁻¹.

B4: hu2H8v17 (antibody, V domains shown)
VH: QVQLVQSGAEVKKPGASVKVSCKASGYTFTNFWIHWVRQAPGQGLEWMGMIDPSDSYTKYNQKFKARATLTVDTSTSTVYMELSSLRSEDTAVYYCARSGVAFPYWGQGTLVTVSS
VL: DIQMTQSPSSLSASVGDRVTITCKASQDVGRNVAWYQQKPGKAPKSLIYSASHRYSGVPSRFSGSGSGTDFTLTISSLQPEDFATYYCQQYNSYPYTFGQGTKVEIK
notes: humanized; also called hu2H8_HC6 + hu2H8_LC3
In the case of B4, the “IC50” value [3] is reported as 0.0221 µM, the Max. % inhibition [3] is reported as 91% and the Kd [4] is reported as 0.0121 µM.

B5: hu2H8v27 (antibody, V domains shown)
VH: QVQLVQSGAEVKKPGASVKVSCKASGYTFTNFWIHWLRQAPGQGLEWMGMIDPSDSYTKYNQKFKARVTMTVDTSTSTTYMELSSLRSEDTAVYYCARSGVAFPYWGQGTLVTVSS
VL: DIQMTQSPSSLSASVGDRVTITCKASQDVGRNVAWYQQKPGKSPKSLIYSASHRYSGVPSRFSGSGSGTDFTLTISSLQPEDFATYFCQQYNSYPYTFGQGTKVEIK
notes: humanized; also called hu2H8_HC3 + hu2H8_LC5
B5 was tested, and the “IC50” value [3] was 0.0165 µM, the Max. % inhibition [3] was 85% and the Kd [4] was 0.0128 µM.

B6: hu2H8v29.1 (antibody, V domains shown)
VH: QVQLVQSGAEVKKPGASVKVSCKASGYTFTNFWIHWVRQAPGQGLEWMGMIDPSDSYTKYNQKFKARATLTVDTSTSTVYMELSSLRSEDTAVYYCARSGVAFPYWGQGTLVTVSS
VL: DIQMTQSPSSLSASVGDRVTITCKASQDVGRNVAWYQQKPGKSPKSLIYSASHYYSGVPSRFSGSGSGTDFTLTISSLQPEDFATYFCQQYNSYPYTFGQGTKVEIK
notes: captured via human Fc; also called hu2H8_HC6 + hu2H8_LC5.1
For B6, the Kd [5] was 0.00722 µM.

B7: hu2H8v29.2 (antibody, V domains shown)
VH: QVQLVQSGAEVKKPGASVKVSCKASGYTFTNFWIHWVRQAPGQGLEWMGMIDPSDSYTKYNQKFKARATLTVDTSTSTVYMELSSLRSEDTAVYYCARSGVAFPYWGQGTLVTVSS
VL: DIQMTQSPSSLSASVGDRVTITCKASQDVGRNVAWYQQKPGKSPKSLIYSASHNYSGVPSRFSGSGSGTDFTLTISSLQPEDFATYFCQQYNSYPYTFGQGTKVEIK
notes: captured via human Fc; also called hu2H8_HC6 + hu2H8_LC5.2
With B7 the Kd [5] was 0.00816 µM.

B8: hu2H8v29.3 (antibody, V domains shown)
VH: QVQLVQSGAEVKKPGASVKVSCKASGYTFTNFWIHWVRQAPGQGLEWMGMIDPSDSYTKYNQKFKARATLTVDTSTSTVYMELSSLRSEDTAVYYCARSGVAFPYWGQGTLVTVSS
VL: DIQMTQSPSSLSASVGDRVTITCKASQDVGRNVAWYQQKPGKSPKSLIYSASHMYSGVPSRFSGSGSGTDFTLTISSLQPEDFATYFCQQYNSYPYTFGQGTKVEIK
notes: captured via human Fc; also called hu2H8_HC6 + hu2H8_LC5.3
For B8, the Kd [5] was 0.00693 µM.

B9: hu2H8v29.4 (antibody, V domains shown)
VH: QVQLVQSGAEVKKPGASVKVSCKASGYTFTNFWIHWVRQAPGQGLEWMGMIDPSDSYTKYNQKFKARATLTVDTSTSTVYMELSSLRSEDTAVYYCARSGVAFPYWGQGTLVTVSS
VL: DIQMTQSPSSLSASVGDRVTITCKASQDVGRNVAWYQQKPGKSPKSLIYSASHQYSGVPSRFSGSGSGTDFTLTISSLQPEDFATYFCQQYNSYPYTFGQGTKVEIK
notes: captured via human Fc; also called hu2H8_HC6 + hu2H8_LC5.4
B9 showed a Kd [5] of 0.00653 µM.

B10: hu2H8v29.5 (antibody, V domains shown)
VH: QVQLVQSGAEVKKPGASVKVSCKASGYTFTNFWIHWVRQAPGQGLEWMGMIDPSDSYTKYNQKFKARATLTVDTSTSTVYMELSSLRSEDTAVYYCARSGVAFPYWGQGTLVTVSS
VL: DIQMTQSPSSLSASVGDRVTITCKASQDVGRNVAWYQQKPGKSPKSLIYSASHKYSGVPSRFSGSGSGTDFTLTISSLQPEDFATYFCQQYNSYPYTFGQGTKVEIK
notes: captured via human Fc; also called hu2H8_HC6 + hu2H8_LC5.5
Binder B10 has a Kd [5] of 0.00821 µM.

B11: hu2H8v29.6 (antibody, V domains shown)
VH: QVQLVQSGAEVKKPGASVKVSCKASGYTFTNFWIHWVRQAPGQGLEWMGMIDPSDSYTKYNQKFKARATLTVDTSTSTVYMELSSLRSEDTAVYYCARSGVAFPYWGQGTLVTVSS
VL: DIQMTQSPSSLSASVGDRVTITCKASQDVGRNVAWYQQKPGKSPKSLIYSASHLYSGVPSRFSGSGSGTDFTLTISSLQPEDFATYFCQQYNSYPYTFGQGTKVEIK
notes: captured via human Fc; also called hu2H8_HC6 + hu2H8_LC5.6
With B11 the Kd [5] was 0.00751 µM.

B12: hu2H8v29.7 (antibody, V domains shown)
VH: QVQLVQSGAEVKKPGASVKVSCKASGYTFTNFWIHWVRQAPGQGLEWMGMIDPSDSYTKYNQKFKARATLTVDTSTSTVYMELSSLRSEDTAVYYCARSGVAFPYWGQGTLVTVSS
VL: DIQMTQSPSSLSASVGDRVTITCKASQDVGRNVAWYQQKPGKSPKSLIYSASHRYSGVPSRFSGSGSGTDFTLTISSLQPEDFATYFCQQYSSYPYTFGQGTKVEIK
notes: captured via human Fc; also called hu2H8_HC6 + hu2H8_LC5.7
B12 showed a Kd [5] of 0.00499 µM.

B13: hu2H8v29.8 (antibody, V domains shown)
VH: QVQLVQSGAEVKKPGASVKVSCKASGYTFTNFWIHWVRQAPGQGLEWMGMIDPSDSYTKYNQKFKARATLTVDTSTSTVYMELSSLRSEDTAVYYCARSGVAFPYWGQGTLVTVSS
VL: DIQMTQSPSSLSASVGDRVTITCKASQDVGRNVAWYQQKPGKSPKSLIYSASHRYSGVPSRFSGSGSGTDFTLTISSLQPEDFATYFCQQYQSYPYTFGQGTKVEIK
notes: captured via human Fc; also called hu2H8_HC6 + hu2H8_LC5.8
For B13, the Kd [5] was 0.0081 µM.

B14: hu2H8v29.9 (antibody, V domains shown)
VH: QVQLVQSGAEVKKPGASVKVSCKASGYTFTNFWIHWVRQAPGQGLEWMGMIDPSDSYTKYNQKFKARATLTVDTSTSTVYMELSSLRSEDTAVYYCARSGVAFPYWGQGTLVTVSS
VL: DIQMTQSPSSLSASVGDRVTITCKASQDVGRNVAWYQQKPGKSPKSLIYSASHRYSGVPSRFSGSGSGTDFTLTISSLQPEDFATYFCQQYNAYPYTFGQGTKVEIK
notes: captured via human Fc; also called hu2H8_HC6 + hu2H8_LC5.9
B14 showed a Kd [5] of 0.011 µM.

B15: hu2H8v29.10 (antibody, V domains shown)
VH: QVQLVQSGAEVKKPGASVKVSCKASGYTFTNFWIHWVRQAPGQGLEWMGMIDPSDSYTKYNQKFKARATLTVDTSTSTVYMELSSLRSEDTAVYYCARSGVAFPYWGQGTLVTVSS
VL: DIQMTQSPSSLSASVGDRVTITCKASQDVGRNVAWYQQKPGKSPKSLIYSASHRYSGVPSRFSGSGSGTDFTLTISSLQPEDFATYFCQQYYSYPYTFGQGTKVEIK
notes: captured via human Fc; also called hu2H8_HC6 + hu2H8_LC5.10
B15 showed a Kd [5] of 0.00484 µM.

B16: hu2H8v29.11 (antibody, V domains shown)
VH: QVQLVQSGAEVKKPGASVKVSCKASGYTFTNFWIHWVRQAPGQGLEWMGMIDPSDSYTKYNQKFKARATLTVDTSTSTVYMELSSLRSEDTAVYYCARSGVAFPYWGQGTLVTVSS
VL: DIQMTQSPSSLSASVGDRVTITCKASQDVGRNVAWYQQKPGKSPKSLIYSASHRYSGVPSRFSGSGSGTDFTLTISSLQPEDFATYFCQQYYSYAYTFGQGTKVEIK
notes: captured via human Fc; also called hu2H8_HC6 + hu2H8_LC5.11
B16 was tested, and the Kd [5] was 0.00483 µM.

B17: 1F1 (antibody, human IgG1, V domains shown)
VH: EVQLQQSGAELMKPGASVKLSCKATGYTFIGYWIDWVKQRPGHGLEWIGEILPGGGSTNHNEKFKGKATFTTDTSSNTVYMQLSSLTTEDSAIYYCAREGSYGNYYFDYWGQGTSVTVSS
VL: DIQMTQTPLSLPVSLGDQASISCRSSQSIVHSNGNTYLEWYLQKPGQSPKLLIYKVSNRFSGVPDRFSGSGSGTDFTLKISRVEAEDLGVYYCFQGSHVPYTFGGGTKLEIK
notes: chimeric, human IgG1/kappa; also called Clone 1F1
For B17, the “% Max Inhibition” value [1] was 63%, the “Cellular IC50” value [1] was 0.011 µM and the Kd [2] was 0.005 µM. The koff [2] was 0.00024 s⁻¹ and the kon [2] was 49000 M⁻¹ s⁻¹.

B18: 2E1 (antibody, human IgG1, V domains shown)
VH: EVQLQQPGTELVRPGTSVKLSCKASGYTFTNFWMHWVKQRPGQGLEWIGVINPSDTYTKFNQKFRGKATLTVDTSSSTAYMQLSSLTSEDSAVYFCARPTVGLDYWGQGTSVTVSS
VL: DIVMTQSQKFMPTSVGDRVSVTCKASQNVGSNVAWYQQKSGQSPKALIYSASHRYSGVPDRFTGSGSGTDFTLTISNVQSEDLAEYFCQQYNSYPYTFGGGTKLEIK
notes: chimeric, human IgG1/kappa; also called Clone 2E1
For B18, the “% Max Inhibition” value [1] was 63%, the “Cellular IC50” value [1] was 0.034 µM and the Kd [2] was 0.071 µM. The koff [2] was 0.0013 s⁻¹ and the kon [2] was 18000 M⁻¹ s⁻¹.
